Measurements reported in patent publication US20100104564A1 (published 2010).

B1: anti-CD30 antibody (5F11) variant E345W (antibody)
heavy: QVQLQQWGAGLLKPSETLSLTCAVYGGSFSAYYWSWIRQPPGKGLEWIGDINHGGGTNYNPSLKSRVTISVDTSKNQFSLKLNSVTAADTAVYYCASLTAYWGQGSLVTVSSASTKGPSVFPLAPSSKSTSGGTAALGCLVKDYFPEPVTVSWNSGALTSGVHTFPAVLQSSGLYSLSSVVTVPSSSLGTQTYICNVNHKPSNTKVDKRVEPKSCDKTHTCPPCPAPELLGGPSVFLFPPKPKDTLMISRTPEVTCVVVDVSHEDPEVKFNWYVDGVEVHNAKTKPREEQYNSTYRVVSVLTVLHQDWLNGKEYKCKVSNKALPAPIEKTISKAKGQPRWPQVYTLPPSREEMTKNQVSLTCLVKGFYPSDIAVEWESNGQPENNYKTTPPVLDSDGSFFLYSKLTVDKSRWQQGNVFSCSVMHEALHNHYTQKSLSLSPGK
light: DIQMTQSPTSLSASVGDRVTITCRASQGISSWLTWYQQKPEKAPKSLIYAASSLQSGVPSRFSGSGSGTDFTLTISSLQPEDFATYYCQQYDSYPITFGQGTRLEIKRTVAAPSVFIFPPSDEQLKSGTASVVCLLNNFYPREAKVQWKVDNALQSGNSQESVTEQDSKDSTYSLSSTLTLSKADYEKHKVYACEVTHQGLSSPVTKSFNRGEC
notes: Single Fc substitution in the 5F11 antibody; EU numbering, not the numbering of the UniProt entry
B2: anti-CD30 antibody (5F11) variant F404W (antibody)
heavy: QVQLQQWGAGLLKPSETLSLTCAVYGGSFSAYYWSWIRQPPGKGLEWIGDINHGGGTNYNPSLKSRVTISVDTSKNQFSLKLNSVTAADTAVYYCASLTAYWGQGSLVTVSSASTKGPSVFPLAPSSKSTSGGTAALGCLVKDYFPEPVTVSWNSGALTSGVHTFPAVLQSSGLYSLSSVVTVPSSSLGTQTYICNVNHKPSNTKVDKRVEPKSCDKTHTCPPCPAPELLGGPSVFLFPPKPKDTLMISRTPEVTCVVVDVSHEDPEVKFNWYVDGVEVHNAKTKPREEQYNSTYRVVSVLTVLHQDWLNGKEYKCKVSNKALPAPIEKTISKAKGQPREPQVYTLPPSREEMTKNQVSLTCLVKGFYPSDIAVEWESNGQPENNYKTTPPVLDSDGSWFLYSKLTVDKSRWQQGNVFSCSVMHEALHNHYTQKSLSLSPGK
light: DIQMTQSPTSLSASVGDRVTITCRASQGISSWLTWYQQKPEKAPKSLIYAASSLQSGVPSRFSGSGSGTDFTLTISSLQPEDFATYYCQQYDSYPITFGQGTRLEIKRTVAAPSVFIFPPSDEQLKSGTASVVCLLNNFYPREAKVQWKVDNALQSGNSQESVTEQDSKDSTYSLSSTLTLSKADYEKHKVYACEVTHQGLSSPVTKSFNRGEC
notes: Single Fc substitution in the 5F11 antibody; EU numbering, not the numbering of the UniProt entry; copies: 2 + 2
B3: anti-CD30 antibody (5F11) variant G446W (antibody)
heavy: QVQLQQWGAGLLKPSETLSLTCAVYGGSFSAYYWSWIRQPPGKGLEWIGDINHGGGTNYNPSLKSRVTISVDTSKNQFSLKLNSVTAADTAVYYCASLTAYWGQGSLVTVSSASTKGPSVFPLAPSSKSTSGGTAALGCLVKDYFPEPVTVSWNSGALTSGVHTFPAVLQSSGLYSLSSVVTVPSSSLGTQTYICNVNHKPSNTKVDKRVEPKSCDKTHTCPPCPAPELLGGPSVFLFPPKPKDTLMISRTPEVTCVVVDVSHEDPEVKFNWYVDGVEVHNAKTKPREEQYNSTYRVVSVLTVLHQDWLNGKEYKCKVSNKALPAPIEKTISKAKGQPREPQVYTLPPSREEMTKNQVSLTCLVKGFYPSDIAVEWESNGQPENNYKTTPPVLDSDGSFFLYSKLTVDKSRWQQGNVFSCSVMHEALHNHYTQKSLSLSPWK
light: DIQMTQSPTSLSASVGDRVTITCRASQGISSWLTWYQQKPEKAPKSLIYAASSLQSGVPSRFSGSGSGTDFTLTISSLQPEDFATYYCQQYDSYPITFGQGTRLEIKRTVAAPSVFIFPPSDEQLKSGTASVVCLLNNFYPREAKVQWKVDNALQSGNSQESVTEQDSKDSTYSLSSTLTLSKADYEKHKVYACEVTHQGLSSPVTKSFNRGEC
notes: as for B2
B4: anti-CD30 antibody (5F11) variant S354R (antibody)
heavy: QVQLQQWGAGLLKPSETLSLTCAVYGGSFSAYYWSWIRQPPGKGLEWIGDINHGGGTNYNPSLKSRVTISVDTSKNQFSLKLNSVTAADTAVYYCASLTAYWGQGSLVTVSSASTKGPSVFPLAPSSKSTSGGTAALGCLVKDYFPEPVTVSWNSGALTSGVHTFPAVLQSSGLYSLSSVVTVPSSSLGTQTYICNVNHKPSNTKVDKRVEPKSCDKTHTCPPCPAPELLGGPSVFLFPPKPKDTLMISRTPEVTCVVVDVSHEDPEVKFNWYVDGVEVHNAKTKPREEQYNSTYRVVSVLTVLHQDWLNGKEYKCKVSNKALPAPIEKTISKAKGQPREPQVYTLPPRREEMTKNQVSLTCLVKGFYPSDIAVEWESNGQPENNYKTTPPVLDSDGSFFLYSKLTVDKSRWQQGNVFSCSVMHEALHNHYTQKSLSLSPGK
light: DIQMTQSPTSLSASVGDRVTITCRASQGISSWLTWYQQKPEKAPKSLIYAASSLQSGVPSRFSGSGSGTDFTLTISSLQPEDFATYYCQQYDSYPITFGQGTRLEIKRTVAAPSVFIFPPSDEQLKSGTASVVCLLNNFYPREAKVQWKVDNALQSGNSQESVTEQDSKDSTYSLSSTLTLSKADYEKHKVYACEVTHQGLSSPVTKSFNRGEC
notes: as for B2
B5: anti-CD30 antibody (5F11) variant S426W (antibody)
heavy: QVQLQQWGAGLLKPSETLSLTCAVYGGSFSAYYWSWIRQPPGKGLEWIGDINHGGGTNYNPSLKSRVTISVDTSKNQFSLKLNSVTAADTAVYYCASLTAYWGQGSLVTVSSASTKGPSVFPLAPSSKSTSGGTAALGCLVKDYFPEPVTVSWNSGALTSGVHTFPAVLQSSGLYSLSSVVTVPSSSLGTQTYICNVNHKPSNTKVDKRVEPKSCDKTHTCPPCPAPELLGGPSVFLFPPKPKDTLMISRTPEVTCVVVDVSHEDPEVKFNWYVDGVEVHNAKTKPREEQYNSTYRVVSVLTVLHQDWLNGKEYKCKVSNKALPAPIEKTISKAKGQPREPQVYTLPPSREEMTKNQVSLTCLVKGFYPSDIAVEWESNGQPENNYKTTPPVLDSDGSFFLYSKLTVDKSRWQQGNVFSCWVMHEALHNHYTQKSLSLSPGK
light: DIQMTQSPTSLSASVGDRVTITCRASQGISSWLTWYQQKPEKAPKSLIYAASSLQSGVPSRFSGSGSGTDFTLTISSLQPEDFATYYCQQYDSYPITFGQGTRLEIKRTVAAPSVFIFPPSDEQLKSGTASVVCLLNNFYPREAKVQWKVDNALQSGNSQESVTEQDSKDSTYSLSSTLTLSKADYEKHKVYACEVTHQGLSSPVTKSFNRGEC
notes: as for B2
B6: anti-CD30 antibody (5F11) variant A378P (antibody)
heavy: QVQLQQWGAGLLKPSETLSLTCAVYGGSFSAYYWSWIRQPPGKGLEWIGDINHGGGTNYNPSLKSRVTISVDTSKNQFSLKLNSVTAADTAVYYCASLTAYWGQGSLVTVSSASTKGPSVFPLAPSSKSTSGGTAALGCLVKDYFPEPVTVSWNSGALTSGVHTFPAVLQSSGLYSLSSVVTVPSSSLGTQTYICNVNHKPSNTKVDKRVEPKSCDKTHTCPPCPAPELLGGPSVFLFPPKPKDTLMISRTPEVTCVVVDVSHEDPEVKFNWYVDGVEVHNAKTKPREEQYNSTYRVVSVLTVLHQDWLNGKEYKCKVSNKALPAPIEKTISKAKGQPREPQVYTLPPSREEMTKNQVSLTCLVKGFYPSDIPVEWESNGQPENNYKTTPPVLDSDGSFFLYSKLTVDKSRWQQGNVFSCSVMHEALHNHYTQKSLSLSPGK
light: DIQMTQSPTSLSASVGDRVTITCRASQGISSWLTWYQQKPEKAPKSLIYAASSLQSGVPSRFSGSGSGTDFTLTISSLQPEDFATYYCQQYDSYPITFGQGTRLEIKRTVAAPSVFIFPPSDEQLKSGTASVVCLLNNFYPREAKVQWKVDNALQSGNSQESVTEQDSKDSTYSLSSTLTLSKADYEKHKVYACEVTHQGLSSPVTKSFNRGEC
notes: as for B2
B7: anti-CD30 antibody (5F11) variant E356K (antibody)
heavy: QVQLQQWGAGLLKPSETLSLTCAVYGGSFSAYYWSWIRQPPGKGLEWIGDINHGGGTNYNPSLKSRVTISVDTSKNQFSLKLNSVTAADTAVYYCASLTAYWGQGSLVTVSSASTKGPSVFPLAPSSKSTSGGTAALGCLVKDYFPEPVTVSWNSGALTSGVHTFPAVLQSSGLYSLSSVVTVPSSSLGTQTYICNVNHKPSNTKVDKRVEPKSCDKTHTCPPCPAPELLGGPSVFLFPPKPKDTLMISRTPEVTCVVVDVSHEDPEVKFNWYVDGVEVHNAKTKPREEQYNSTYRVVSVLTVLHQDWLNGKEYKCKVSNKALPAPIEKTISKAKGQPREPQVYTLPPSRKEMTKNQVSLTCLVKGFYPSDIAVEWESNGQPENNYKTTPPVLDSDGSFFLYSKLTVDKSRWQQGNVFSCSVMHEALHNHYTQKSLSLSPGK
light: DIQMTQSPTSLSASVGDRVTITCRASQGISSWLTWYQQKPEKAPKSLIYAASSLQSGVPSRFSGSGSGTDFTLTISSLQPEDFATYYCQQYDSYPITFGQGTRLEIKRTVAAPSVFIFPPSDEQLKSGTASVVCLLNNFYPREAKVQWKVDNALQSGNSQESVTEQDSKDSTYSLSSTLTLSKADYEKHKVYACEVTHQGLSSPVTKSFNRGEC
notes: Single Fc substitution in the 5F11 antibody; EU numbering; copies: 2 + 2
B8: anti-CD30 antibody (5F11) variant D376T (antibody)
heavy: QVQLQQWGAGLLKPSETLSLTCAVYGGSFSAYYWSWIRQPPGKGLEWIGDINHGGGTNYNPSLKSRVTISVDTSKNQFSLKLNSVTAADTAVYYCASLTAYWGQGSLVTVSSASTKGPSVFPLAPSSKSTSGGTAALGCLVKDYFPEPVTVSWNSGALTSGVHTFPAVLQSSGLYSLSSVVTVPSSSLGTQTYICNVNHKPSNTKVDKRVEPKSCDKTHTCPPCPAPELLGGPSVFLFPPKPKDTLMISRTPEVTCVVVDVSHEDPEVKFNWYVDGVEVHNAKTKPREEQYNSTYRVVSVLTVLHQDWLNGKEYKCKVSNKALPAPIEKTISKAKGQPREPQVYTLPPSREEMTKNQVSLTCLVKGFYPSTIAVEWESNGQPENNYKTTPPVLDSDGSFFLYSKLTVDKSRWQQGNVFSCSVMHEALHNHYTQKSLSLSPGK
light: DIQMTQSPTSLSASVGDRVTITCRASQGISSWLTWYQQKPEKAPKSLIYAASSLQSGVPSRFSGSGSGTDFTLTISSLQPEDFATYYCQQYDSYPITFGQGTRLEIKRTVAAPSVFIFPPSDEQLKSGTASVVCLLNNFYPREAKVQWKVDNALQSGNSQESVTEQDSKDSTYSLSSTLTLSKADYEKHKVYACEVTHQGLSSPVTKSFNRGEC
notes: as for B2
B9: anti-CD30 antibody (5F11) variant S254W (antibody)
heavy: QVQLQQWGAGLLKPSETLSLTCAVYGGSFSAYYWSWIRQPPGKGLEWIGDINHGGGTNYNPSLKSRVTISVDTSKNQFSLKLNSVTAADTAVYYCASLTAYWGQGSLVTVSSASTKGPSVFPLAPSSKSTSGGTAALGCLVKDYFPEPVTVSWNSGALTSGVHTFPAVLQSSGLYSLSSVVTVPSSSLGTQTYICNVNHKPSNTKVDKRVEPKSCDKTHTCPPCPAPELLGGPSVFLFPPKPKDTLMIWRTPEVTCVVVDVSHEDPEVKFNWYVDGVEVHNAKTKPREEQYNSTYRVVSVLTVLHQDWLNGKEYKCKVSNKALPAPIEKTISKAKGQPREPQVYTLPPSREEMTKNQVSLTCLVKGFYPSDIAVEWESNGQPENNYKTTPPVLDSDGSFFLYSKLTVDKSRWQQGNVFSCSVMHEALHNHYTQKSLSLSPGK
light: DIQMTQSPTSLSASVGDRVTITCRASQGISSWLTWYQQKPEKAPKSLIYAASSLQSGVPSRFSGSGSGTDFTLTISSLQPEDFATYYCQQYDSYPITFGQGTRLEIKRTVAAPSVFIFPPSDEQLKSGTASVVCLLNNFYPREAKVQWKVDNALQSGNSQESVTEQDSKDSTYSLSSTLTLSKADYEKHKVYACEVTHQGLSSPVTKSFNRGEC
notes: as for B2
B10: anti-CD30 antibody (5F11) variant P396I (antibody)
heavy: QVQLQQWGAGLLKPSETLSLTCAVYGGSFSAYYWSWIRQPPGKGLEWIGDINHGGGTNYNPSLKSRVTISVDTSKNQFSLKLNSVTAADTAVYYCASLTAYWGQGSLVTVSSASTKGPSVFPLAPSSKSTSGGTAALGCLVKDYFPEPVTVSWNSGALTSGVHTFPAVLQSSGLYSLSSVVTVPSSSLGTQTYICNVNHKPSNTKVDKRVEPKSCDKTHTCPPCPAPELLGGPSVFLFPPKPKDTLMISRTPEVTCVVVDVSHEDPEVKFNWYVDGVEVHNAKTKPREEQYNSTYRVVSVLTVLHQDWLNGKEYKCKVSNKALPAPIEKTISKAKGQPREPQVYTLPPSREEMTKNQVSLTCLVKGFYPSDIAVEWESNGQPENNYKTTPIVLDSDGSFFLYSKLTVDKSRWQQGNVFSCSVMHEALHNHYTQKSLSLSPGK
light: DIQMTQSPTSLSASVGDRVTITCRASQGISSWLTWYQQKPEKAPKSLIYAASSLQSGVPSRFSGSGSGTDFTLTISSLQPEDFATYYCQQYDSYPITFGQGTRLEIKRTVAAPSVFIFPPSDEQLKSGTASVVCLLNNFYPREAKVQWKVDNALQSGNSQESVTEQDSKDSTYSLSSTLTLSKADYEKHKVYACEVTHQGLSSPVTKSFNRGEC
notes: as for B2
B11: anti-CD30 antibody (5F11) variant P247I (antibody)
heavy: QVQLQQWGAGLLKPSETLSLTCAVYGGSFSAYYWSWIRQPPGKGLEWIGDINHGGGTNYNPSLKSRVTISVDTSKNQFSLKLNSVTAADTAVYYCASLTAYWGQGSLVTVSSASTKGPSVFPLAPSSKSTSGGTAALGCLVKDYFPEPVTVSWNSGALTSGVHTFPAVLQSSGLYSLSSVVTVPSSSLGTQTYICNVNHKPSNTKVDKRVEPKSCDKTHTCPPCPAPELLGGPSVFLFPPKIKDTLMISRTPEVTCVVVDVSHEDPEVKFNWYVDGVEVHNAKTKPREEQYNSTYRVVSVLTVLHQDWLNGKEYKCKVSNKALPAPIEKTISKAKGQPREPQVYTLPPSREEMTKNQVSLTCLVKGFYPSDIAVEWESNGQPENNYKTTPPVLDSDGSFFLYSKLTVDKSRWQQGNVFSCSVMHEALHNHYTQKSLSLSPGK
light: DIQMTQSPTSLSASVGDRVTITCRASQGISSWLTWYQQKPEKAPKSLIYAASSLQSGVPSRFSGSGSGTDFTLTISSLQPEDFATYYCQQYDSYPITFGQGTRLEIKRTVAAPSVFIFPPSDEQLKSGTASVVCLLNNFYPREAKVQWKVDNALQSGNSQESVTEQDSKDSTYSLSSTLTLSKADYEKHKVYACEVTHQGLSSPVTKSFNRGEC
notes: as for B2

Target: T1, human FcRn (recombinant soluble receptor, 6XHis, co-expressed with beta2 microglobulin) (human, UniProt P61769 21-119)
T1 construct: purified on nickel; also called huFcRn
Assay: Luminex assay, pH 6
Experimental: FcRn binding by single and multiple substitution variants was also assessed. The fold difference in binding as compared to wild type anti-CD30 (unaltered Fc) was measured in luminex assays.

T1 sequence (chain, as listed by the source limits assumed, chain 1 of 2): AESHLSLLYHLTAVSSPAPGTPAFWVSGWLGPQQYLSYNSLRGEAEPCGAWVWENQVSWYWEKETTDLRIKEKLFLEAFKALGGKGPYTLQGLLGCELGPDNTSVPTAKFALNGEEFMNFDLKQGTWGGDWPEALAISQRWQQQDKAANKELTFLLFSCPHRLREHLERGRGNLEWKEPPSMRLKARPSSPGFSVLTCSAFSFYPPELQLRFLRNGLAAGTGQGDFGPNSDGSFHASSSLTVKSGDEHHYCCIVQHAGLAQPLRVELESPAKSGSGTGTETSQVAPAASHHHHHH
T1 sequence (P61769 21-119 limits assumed, chain 2 of 2): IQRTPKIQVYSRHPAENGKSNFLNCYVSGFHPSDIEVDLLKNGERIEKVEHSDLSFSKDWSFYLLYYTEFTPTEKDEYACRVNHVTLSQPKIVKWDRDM

Binder	FcRn binding at pH 6 (fold difference vs wild type anti-CD30)
B1	1.3 fold vs wild type
B2	1.7 fold vs wild type
B3	1.1 fold vs wild type
B4	1.3 fold vs wild type
B5	0.6 fold vs wild type
B6	0.6 fold vs wild type
B7	1.4 fold vs wild type
B8	1.6 fold vs wild type
B9	0.2 fold vs wild type
B10	1.4 fold vs wild type
B11	1.1 fold vs wild type
